Patent US20200407436A1 (published 2020)
Where “and” joins values, the source holds several entries; their conditions need not be identical. Equal values may be shown once. Blank lines part the entries; values can stand above or below the binder they belong to.

Experiments:
mature human TGF-beta 2 [1] = molecular target: T1, mature human TGF-beta 2 (human, UniProt P61812 303-414); test: X-ray crystal structure of the complex
T1 construct: also called TGFb2; TGFB2
T1 sequence: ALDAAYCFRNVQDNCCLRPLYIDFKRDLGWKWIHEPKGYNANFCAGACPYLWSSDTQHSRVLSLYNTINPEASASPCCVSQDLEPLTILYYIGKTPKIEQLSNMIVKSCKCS

mature human TGF-beta 1 [2] = molecular target: T2, mature human TGF-beta 1 (human, UniProt P01137 279-390); test: SPR Biacore T200, TGF-beta amine-coupled (~150 RU), Fab as analyte; heterogeneous ligand fit, component 2 (kd2; believed non-occluded, representative)
T2 construct: Bought recombinant protein (Peprotech); also called TGFb1; TGFB1
Procedure: (§1) Background subtraction binding curves were analysed using the Biacore™ T200 evaluation software (version 1.0) following standard procedures.

mature human TGF-beta 2 [3] = molecular target: T1, mature human TGF-beta 2; test: as above
Procedure: as §1

mature human TGF-beta 3 [4] = molecular target: T3, mature human TGF-beta 3 (human, UniProt P10600 301-412); test: as above
T3 construct: also called TGFb3; TGFB3
T3 sequence: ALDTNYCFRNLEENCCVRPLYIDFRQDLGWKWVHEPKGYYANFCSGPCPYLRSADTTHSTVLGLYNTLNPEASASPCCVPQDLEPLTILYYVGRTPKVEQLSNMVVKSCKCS
Procedure: as §1

mature human TGF-beta 1 [5] = molecular target: T2, mature human TGF-beta 1; test: SPR Biacore T200, TGF-beta amine-coupled (~150 RU), Fab as analyte; heterogeneous ligand fit, component 1 (Kd1; believed occluded, weak interaction)
Procedure: as §1

mature human TGF-beta 2 [6] = molecular target: T1, mature human TGF-beta 2; test: as above
Procedure: as §1

mature human TGF-beta 3 [7] = molecular target: T3, mature human TGF-beta 3; test: as above
Procedure: as §1

mature human TGF-beta 1 [8] = molecular target: T2, mature human TGF-beta 1; test: SPR Biacore T200, TGF-beta amine-coupled (~150 RU), Fab as analyte; heterogeneous ligand fit, component 2 (ka2; believed non-occluded, representative)
Procedure: as §1

mature human TGF-beta 2 [9] = molecular target: T1, mature human TGF-beta 2; test: as above
Procedure: as §1

mature human TGF-beta 3 [10] = molecular target: T3, mature human TGF-beta 3; test: as above
Procedure: as §1

mature human TGF-beta 1 [11] = molecular target: T2, mature human TGF-beta 1; test: SPR Biacore T200, TGF-beta amine-coupled (~150 RU), Fab as analyte; heterogeneous ligand fit, component 1 (KD1; believed occluded, weak interaction)
Procedure: as §1

mature human TGF-beta 2 [12] = molecular target: T1, mature human TGF-beta 2; test: as above
Procedure: as §1

mature human TGF-beta 3 [13] = molecular target: T3, mature human TGF-beta 3; test: as above
Procedure: as §1

[14] = molecular target: TGF-beta produced and activated by BxPC3 cells; test: cell-based or functional assay
mature human TGF-beta 1 [15] = molecular target: T2, mature human TGF-beta 1; test: SPR Biacore T200, TGF-beta amine-coupled (~150 RU), Fab as analyte; heterogeneous ligand fit, component 1 (Ka1; believed occluded, weak interaction)
Procedure: as §1

mature human TGF-beta 2 [16] = molecular target: T1, mature human TGF-beta 2; test: as above
Procedure: as §1

mature human TGF-beta 3 [17] = molecular target: T3, mature human TGF-beta 3; test: as above
Procedure: as §1

mature human TGF-beta 1 [18] = molecular target: T2, mature human TGF-beta 1; test: SPR Biacore T200, TGF-beta amine-coupled (~150 RU), Fab as analyte; heterogeneous ligand fit, component 2 (KD2; believed non-occluded, representative)
Procedure: as §1

mature human TGF-beta 2 [19] = molecular target: T1, mature human TGF-beta 2; test: as above
Procedure: as §1

mature human TGF-beta 3 [20] = molecular target: T3, mature human TGF-beta 3; test: as above
Procedure: as §1

mature human TGF-beta 1 [21] = molecular target: T2, mature human TGF-beta 1; test: cell-based or functional assay
mature human TGF-beta 2 [22] = molecular target: T1, mature human TGF-beta 2; test: cell-based or functional assay
mature human TGF-beta 3 [23] = molecular target: T3, mature human TGF-beta 3; test: cell-based or functional assay
[24] = molecular target: TGF-beta produced and activated by BxPC3 cells; test: cell-based or functional assay; remark: listed apart in the source
mature human TGF-beta 1 [25] = molecular target: T2, mature human TGF-beta 1; test: cell-based or functional assay; remark: listed apart in the source
mature human TGF-beta 2 [26] = molecular target: T1, mature human TGF-beta 2; test: cell-based or functional assay; remark: listed apart in the source
mature human TGF-beta 3 [27] = molecular target: T3, mature human TGF-beta 3; test: cell-based or functional assay; remark: listed apart in the source

T2 sequence (P01137 279-390 limits assumed): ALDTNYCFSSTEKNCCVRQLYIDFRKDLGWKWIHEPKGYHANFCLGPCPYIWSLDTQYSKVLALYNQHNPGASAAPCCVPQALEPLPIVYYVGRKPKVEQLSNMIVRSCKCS

B1: scFv 4856 (scFv)
scFv: EVQLVESGGGLVKPGGSLRLSCAASGFSLSSYDMSWVRQAPGKCLEWIGIIYGGSGSTWYASWAKGRFTISRDSAKNSVYLQMNSLRAEDTAVYYCARGRDAGAGGSRNGYSLWGQGTLVTVSSGGGGSGGGGSGGGGSGGGGSAYDMTQSPSTLSASVGDRVTITCQASESIYSGLAWYQQKPGKAPKLLIYAASDLASGVPSRFSGSGSGTEYTLTISSLQPDDFATYYCQQTWTDGGIDNPFGCGTKVEIKRTENLYFQ
- binding result (mature human TGF-beta 2 [1]): binds

B2: 4856 rabbit Fab (Fab, V domains shown)
VH: QSLEESGGRLVTPGTPLTLTCTASGFSLSSYDMSWVRQAPGKGLEWIGIIYGGSGSTWYASWAKGRFTMSKTSTTVDLKITSPTTEDMATYFCARGRDGGAGGSRNGYSLWGQGTLVTVSS
VL: AYDMTQTPASVEVAVGGTVTIKCQASESIYSGLAWYQQTPGQRPKLLIYAASDLASGVPSRFKGSGSGTEYTLTISGVECADAATYYCQQTWTDGGIDNPFGGGTEVVVKR
notes: Rabbit variable regions cloned into rabbit Fab no hinge (VH) and rabbit kappa (VL) vectors, expressed in Expi-293 cells; also called BSN.4856.rbFab
- koff (mature human TGF-beta 1 [2]): 5.08e-05 s⁻¹
- koff (mature human TGF-beta 2 [3]): 0.000383 s⁻¹
- koff (mature human TGF-beta 3 [4]): 0.00144 s⁻¹
- koff (mature human TGF-beta 1 [5]): 0.000318 s⁻¹
- koff (mature human TGF-beta 2 [6]): 6.55e-05 s⁻¹
- koff (mature human TGF-beta 3 [7]): 0.000782 s⁻¹
- kon (mature human TGF-beta 1 [8]): 455000 M⁻¹ s⁻¹
- kon (mature human TGF-beta 2 [9]): 632000 M⁻¹ s⁻¹
- kon (mature human TGF-beta 3 [10]): 873000 M⁻¹ s⁻¹
- Kd (mature human TGF-beta 1 [11]): 6.3 nM
- Kd (mature human TGF-beta 2 [12]): 1.69 nM
- Kd (mature human TGF-beta 3 [13]): 12.4 nM
- Geomean IC50, BxPC3-HEK-Blue TGF-beta reporter gene co-culture assay [14]: 3.7 nM
- kon (mature human TGF-beta 1 [15]): 50500 M⁻¹ s⁻¹
- kon (mature human TGF-beta 2 [16]): 38700 M⁻¹ s⁻¹
- kon (mature human TGF-beta 3 [17]): 63300 M⁻¹ s⁻¹
- Kd (mature human TGF-beta 1 [18]): 0.112 nM
- Kd (mature human TGF-beta 2 [19]): 0.606 nM
- Kd (mature human TGF-beta 3 [20]): 1.65 nM
- Geomean IC50, HEK-Blue TGF-beta reporter gene assay (mature human TGF-beta 1 [21]): 1.77 unit unclear (column head says nM, but r10 gives the nM value in brackets) and 0.04 nM
- Geomean IC50, HEK-Blue TGF-beta reporter gene assay (mature human TGF-beta 2 [22]): 0.3 unit unclear (column head says nM, but r10 gives the nM value in brackets) and 0.01 nM
- Geomean IC50, HEK-Blue TGF-beta reporter gene assay (mature human TGF-beta 3 [23]): 24.5 unit unclear (column head says nM, but r10 gives the nM value in brackets) and 0.54 nM

B4: humanised antibody 4856 Fab graft gL3gH20 (Fab, V domains shown)
VH: EVQLVESGGGLVKPGGSLRLSCAASGFSLSSYDMSWVRQAPGKGLEWISIIYGGSGSTWYASWAKGRFTMSKDSAKNSVYLQMNSLRAEDTAVYYCARGRDAGAGGSRNGYSLWGQGTLVTVSS
VL: AYDMTQSPSTLSASVGDRVTITCQASESIYSGLAWYQQKPGKAPKLLIYAASDLASGVPSRFSGSGSGTEYTLTISSLQPDDFATYYCQQTWTDGGIDNPFGGGTKVEIKR
- Geometric mean IC50, BxPC3 and HEK-Blue TGF-beta reporter gene co-culture assay [24]: 4.63 nM
- Geometric mean IC50, HEK-Blue TGF-beta reporter gene assay (mature human TGF-beta 1 [25]): 0.038 nM
- Geometric mean IC50, HEK-Blue TGF-beta reporter gene assay (mature human TGF-beta 2 [26]): 0.011 nM
- Geometric mean IC50, HEK-Blue TGF-beta reporter gene assay (mature human TGF-beta 3 [27]): 0.302 nM

Next, values leading:

- Geometric mean IC50, BxPC3 and HEK-Blue TGF-beta reporter gene co-culture assay [24]: 9.1 nM
- Geometric mean IC50, HEK-Blue TGF-beta reporter gene assay (mature human TGF-beta 1 [25]): 0.41 nM
- Geometric mean IC50, HEK-Blue TGF-beta reporter gene assay (mature human TGF-beta 2 [26]): 0.017 nM
- Geometric mean IC50, HEK-Blue TGF-beta reporter gene assay (mature human TGF-beta 3 [27]): 1.99 nM
B3: humanised antibody 4856 Fab graft gL3gH23 (Fab, V domains shown)
VH: EVQLVESGGGLVKPGGSLRLSCAASGFSLSSYDMSWVRQAPGKGLEWIGIIYGGSGSTWYASWAKGRFTISRDSAKNSVYLQMNSLRAEDTAVYYCARGRDAGAGGSRNAYSLWGQGTLVTVSS
VL: AYDMTQSPSTLSASVGDRVTITCQASESIYSGLAWYQQKPGKAPKLLIYAASDLASGVPSRFSGSGSGTEYTLTISSLQPDDFATYYCQQTWTDGGIDNPFGGGTKVEIKR

- Geometric mean IC50, BxPC3 and HEK-Blue TGF-beta reporter gene co-culture assay [24]: 3.77 nM
- Geometric mean IC50, HEK-Blue TGF-beta reporter gene assay (mature human TGF-beta 1 [25]): 0.255 nM
- Geometric mean IC50, HEK-Blue TGF-beta reporter gene assay (mature human TGF-beta 2 [26]): 0.016 nM
- Geometric mean IC50, HEK-Blue TGF-beta reporter gene assay (mature human TGF-beta 3 [27]): 1.95 nM
B5: humanised antibody 4856 Fab graft gL3gH29 (Fab, V domains shown)
VH: EVQLVESGGGLVKPGGSLRLSCAASGFSLSSYDMSWVRQAPGKGLEWIGIIYGGSGSTWYASWAKGRFTISRDSAKNSVYLQMNSLRAEDTAVYYCARGRDAGAGGSRDGYSLWGQGTLVTVSS
VL: AYDMTQSPSTLSASVGDRVTITCQASESIYSGLAWYQQKPGKAPKLLIYAASDLASGVPSRFSGSGSGTEYTLTISSLQPDDFATYYCQQTWTDGGIDNPFGGGTKVEIKR
